For test [1], the target named is T1, Human PAR-2 on cells (human, UniProt P55085 26-397).
T1 construct: also called HEK-PAR-2 (#3); human PAR-2 transfected HEK293 cells
T1 sequence: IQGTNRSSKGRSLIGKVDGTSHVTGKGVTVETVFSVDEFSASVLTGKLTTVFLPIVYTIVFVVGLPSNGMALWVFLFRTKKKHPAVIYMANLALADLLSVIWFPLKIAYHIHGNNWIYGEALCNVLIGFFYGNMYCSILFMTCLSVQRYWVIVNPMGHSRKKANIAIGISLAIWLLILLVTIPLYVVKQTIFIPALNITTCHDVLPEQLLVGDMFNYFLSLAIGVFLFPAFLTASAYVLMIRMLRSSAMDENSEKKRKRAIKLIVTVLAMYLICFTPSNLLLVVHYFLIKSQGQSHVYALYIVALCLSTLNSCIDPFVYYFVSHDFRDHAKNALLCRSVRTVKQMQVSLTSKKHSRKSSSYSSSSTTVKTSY
Description: cell binding of IgG4_Pro, HEK-PAR-2 (#3).

In test [2] the target is T1, Human PAR-2 on cells. Briefly: binding of IgG4p to PAR-2 transfected HEK cells (HEK-PAR-2 #3).
The target in test [3] is T2, PAR-2 peptide (SEQ ID NO:42) coupled to Transferrin as carrier (coupled to Transferrin as carrier).
T2 construct: Transferrin carrier not further described
T2 peptide: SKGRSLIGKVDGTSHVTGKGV
Briefly: ELISA on peptide.

Test [4] deals with T3, PAR-4 peptide (SEQ ID NO:44).
T3 peptide: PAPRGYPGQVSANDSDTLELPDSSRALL
Description: ELISA on peptide.

The target of test [5] is T4, PAR-1 peptide (SEQ ID NO:43).
T4 peptide: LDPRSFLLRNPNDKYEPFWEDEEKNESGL
Briefly: ELISA on peptide. Background: ELISA stands for enzyme-linked immunosorbent assay.

Test [6] addresses T1, Human PAR-2 on cells. Description: cell-based or functional assay.
For test [7], the target named is labeled peptide representing the N-terminus of PAR-2 (FRET assay). Briefly: cell-based or functional assay.
Test [8] addresses T5, FLAG-tagged PAR-2 over-expressed on HEK transfectants (Homo sapiens (Human), UniProt P55085 37-397).
T5 sequence: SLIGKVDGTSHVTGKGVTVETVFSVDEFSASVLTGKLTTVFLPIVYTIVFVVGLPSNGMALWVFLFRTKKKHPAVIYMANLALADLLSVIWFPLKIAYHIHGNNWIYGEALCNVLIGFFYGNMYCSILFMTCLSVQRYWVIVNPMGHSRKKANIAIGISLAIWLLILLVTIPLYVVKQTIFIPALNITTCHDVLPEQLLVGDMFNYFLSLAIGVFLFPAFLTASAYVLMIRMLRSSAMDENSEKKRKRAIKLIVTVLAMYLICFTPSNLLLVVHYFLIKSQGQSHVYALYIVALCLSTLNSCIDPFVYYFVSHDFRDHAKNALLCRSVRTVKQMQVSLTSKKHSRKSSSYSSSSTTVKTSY
Description: cell-based or functional assay.

Test [9] deals with T6, Rat PAR-2 peptide (rat).
T6 peptide: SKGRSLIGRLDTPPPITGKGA
Briefly: Rat PAR-2 Peptide Binding (Kinexa). The procedure: (§1) Binding to peptide in solution was determined by Kinexa technology.

Test [10] has as its target T1, Human PAR-2 on cells. Description: cell-based or functional assay. This is another data set of the same source.
In test [11] the target is T7, Murine PAR-2 peptide (murine).
T7 construct: also called mouse PAR-2 peptide
T7 peptide: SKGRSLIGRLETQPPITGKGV
Description: Mouse PAR-2 Peptide Binding (Kinexa). The procedure:
as §1

Test [12] deals with T8, Mouse PAR-2 (endogenous, LLC cells and mouse aortic rings) (mouse, UniProt P55086 39-399).
T8 sequence (looked up): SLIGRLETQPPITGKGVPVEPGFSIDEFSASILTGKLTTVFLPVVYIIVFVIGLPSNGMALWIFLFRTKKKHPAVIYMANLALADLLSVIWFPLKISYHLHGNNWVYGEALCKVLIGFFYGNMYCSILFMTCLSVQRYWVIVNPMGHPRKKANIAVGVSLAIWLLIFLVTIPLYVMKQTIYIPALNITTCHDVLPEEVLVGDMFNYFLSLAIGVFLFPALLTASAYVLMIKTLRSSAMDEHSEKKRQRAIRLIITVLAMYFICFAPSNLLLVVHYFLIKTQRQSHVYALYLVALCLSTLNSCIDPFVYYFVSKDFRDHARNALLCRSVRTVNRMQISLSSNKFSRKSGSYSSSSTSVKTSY
Description: cell-based or functional assay.

Test [13] addresses T9, Rat PAR-2 (endogenous, ARIP cells and rat aortic rings) (rat, UniProt Q63645 37-397).
T9 sequence (looked up): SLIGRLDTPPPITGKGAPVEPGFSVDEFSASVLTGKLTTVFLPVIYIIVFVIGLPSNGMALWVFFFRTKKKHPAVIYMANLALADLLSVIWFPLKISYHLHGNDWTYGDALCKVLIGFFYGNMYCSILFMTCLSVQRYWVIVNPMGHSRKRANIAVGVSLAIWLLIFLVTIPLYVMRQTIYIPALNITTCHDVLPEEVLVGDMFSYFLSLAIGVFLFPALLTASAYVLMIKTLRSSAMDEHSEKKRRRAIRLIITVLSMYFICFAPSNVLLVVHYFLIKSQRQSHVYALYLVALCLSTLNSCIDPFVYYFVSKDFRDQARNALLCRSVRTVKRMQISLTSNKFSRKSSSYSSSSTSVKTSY
Briefly: cell-based or functional assay.

In test [14] the target is T7, Murine PAR-2 peptide. Briefly: Kinexa, peptide in solution. The procedure:
as §1

For test [15], the target named is T10, Human PAR-2 peptide (SEQ ID NO:1, Residues 33-54) (human).
T10 peptide: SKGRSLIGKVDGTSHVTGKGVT
Description: Kinexa, peptide in solution. The procedure: as §1

Test [16] addresses T6, Rat PAR-2 peptide. Description: Kinexa, peptide in solution. How it is done: as §1
The next test deals with T11, Cynomolgus PAR-2 peptide (cynomolgus).
T11 peptide: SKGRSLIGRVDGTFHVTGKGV
Description: Kinexa, peptide in solution. How it is done:
as §1

For test [17], the target named is T1, Human PAR-2 on cells. Briefly: binding to human PAR-2 transfected HEK293 cells.

The term EC50 denotes the concentration that produces a half-maximal response. The Kd is the equilibrium constant for the complex coming apart. High values mean a looser complex, low ones a tighter complex.

B1: Ab4999 IgG4_Pro (antibody, V domains shown)
VH: QVQLVESGGGLVQPGGSLRLSCAASGFTFSSYAMNWVRQAPGKGLEWVSTISYSSSATSYADSVKGRFTISRDNSKNTLYLQMNSLRAEDTAVYYCARIQNDPMDVWGQGTLVTVSS
VL: DIELTQPPSVSVAPGQTARISCSGDNLGKKYVQWYQQKPGQAPVLVIYDDSNRPSGIPERFSGSNSGNTATLTISGTQAEDEADYYCQTWDYSSIRDETNVFGGGTKLTVLG
notes: IgG4_Pro (human IgG4 constant regions, Ser241Pro hinge), lambda; also called IgG4p Ab4999
Regarding B1, the EC50 with Human PAR-2 on cells [1] and with Human PAR-2 on cells [2] was 0.2 nM throughout. Moreover, the binding result in test [3] was “binds”; in test [4], “no binding”; in [5] it was “no binding”. For the same molecule, the “FLIPR A549 cells IC50” value in the test with Human PAR-2 on cells [6] was 3.1 nM. Further, the “FRET Peptide Cleavage IC50” value in test [7] is below 30 nM. Further, the “FLAG Cell-Based Cleavage Approx. IC50” value in [8] is below 1 nM.

B2: Antibody Par-B (antibody, V domains shown)
VH: QVELVESGGGLVQPGGSLRLSCAASGFTFSSYAMNWVRQAPGKGLEWVSTISYSSSATSYADSVKGRFTISRDNSKNTLYLQMNSLRAEDTAVYYCARIQNDPMDVWGQGTLVTVSS
VL: DIELTQPPSVSVAPGQTARISCSGDNLGKKYVQWYQQKPGQAPVLVIYDDSNRPSGIPERFSGSNSGNTATLTISGTQAEDEADYYCQTWDYSSIRDETNVFGGGTKLTVLG
notes: Codon-optimized version of Ab4999 made in CHO-DG44
On to B2, for which the Kd with Rat PAR-2 peptide [9] turned out to be 0.02 nM; with Murine PAR-2 peptide [11] it was 0.08 nM; with Murine PAR-2 peptide [14] it was 0.08 nM; in test [15], 0.08 nM; with Rat PAR-2 peptide [16], 0.02 nM; with Cynomolgus PAR-2 peptide it was 0.04 nM. Besides, the “fold vs. human peptide” value was 4 fold with Rat PAR-2 peptide [9] and 1 fold with Murine PAR-2 peptide [11]. In the test with Human PAR-2 on cells [10], the “Human Keratinocyte/IL-8 assay IC50” value was around 100 nM. Moreover, the “Mouse Aortic Ring Assay, shift of EC50 (Trypsin)” value in test [12] was around 5 fold. Besides, the “Mouse Cell Line FLIPR IC50” value in [12] was around 0.4 nM. Further, the “Rat Aortic Ring Assay, shift of EC50 (Trypsin)” value in test [13] was around 8 fold. Moreover, in the test with Human PAR-2 on cells [17], the EC50 is around 0.3 nM.

B3: Ab5151 IgG4_Pro (cross-cloned: light chain of Ab4999 with heavy chain of Ab5007) (antibody, V domains shown)
VH: QVQLVESGGGLVQPGGSLRLSCAASGFTFSSYAMNWVRQAPGKGLEWVSAISFSGHLTGYADSVKGRFTISRDNSKNTLYLQMNSLRAEDTAVYYCARIQNDPMDVWGQGTLVTVSS
VL: DIELTQPPSVSVAPGQTARISCSGDNLGKKYVQWYQQKPGQAPVLVIYDDSNRPSGIPERFSGSNSGNTATLTISGTQAEDEADYYCQTWDYSSIRDETNVFGGGTKLTVLG
notes: IgG4_Pro format
B3 had an EC50 in the test with Human PAR-2 on cells [1] of 0.4 nM. Also, the binding result in [3] is reported as “binds”; in [4] it was “no binding”; in test [5], “no binding”. In the test with Human PAR-2 on cells [6], the “FLIPR A549 cells IC50” value came to 4 nM. Besides, the “FRET Peptide Cleavage IC50” value in [7] is below 30 nM. For the same molecule, the “FLAG Cell-Based Cleavage Approx. IC50” value in test [8] is below 1 nM.

Source of the values: patent publication US20100119506A1 (published 2010).
